Patent US7740850B2, “PDGFRβ-specific antibodies” (ImClone, LLC, priority 2007, dated 2010)

B1: 1B3: human anti-mouse PDGFRβ antibody from Fab phage display library, human κ/γ1 constant regions; SEQ ID NOS in Table 1 (antibody, listed as Homo sapiens, V domains shown)
VH: QVQLQESGGGLVKPGGSLRLSCAASGFTFSSYSMNWVRQAPGKGLEWVSSISSSSSYIYYADSVKGRFTISRDNSKNTLYLQMNSLRAEDTAVYYCAKGGRPLLVFDFWGQGTLVTVS
VL: EIVMTQSPGTLSLSPGERATLSCRASQSVSSSYLAWYQQKPGQAPRLLIYDASKRATGIPARFSGSGSGTDFTLTISTLESEDSAVYYCQQRGYWPPITFGQGTRLEIKR
modifications: human kappa/gamma1 constant regions
B2: 2C5: PDGFRβ-specific human antibody binding both human and murine PDGFRβ; SEQ ID NOS in Table 1 (antibody, listed as Homo sapiens, V domains shown)
VH: QVQLVQSGAEVKKPGSSVKVSCKASGGTFSSYAISWVRQAPGQGLEWMGRIIPILGIANYAQKFQGRVTITADKSTSTAYMELSSLRSEDTAVYYCARDMGSRNYYYFYWGQGTLVTVSS
VL: EIVLTQSPATLSLSPGERATLSCRASQSVGRYLAWYQQKPGQAPRLLIYGASNRATGIPARFSGSGSGTDFTLTISSLEPEDFAVYYCQQRSNWPLTFGGGTKVEIK

How the values were obtained:
PDGFRβ in D122 cells = target: T1, PDGFRβ in D122 cells (Mus musculus, UniProt P05622); assay: PDGF-BB-stimulated receptor phosphorylation (Western blot); type: cell-based
T1 construct: endogenous in cells; host or cells: D122
Experimental: (§1) Receptor phosphorylation was determined for NIH/3T3 and D122 cells. The cells were plated onto 6 cm dishes and grown to 70-80% confluence, after which the cells were washed twice in PBS and cultured overnight in serum free medium. […] The cells were lysed in lysis buffer (50 mM Tris-HCl, pH 7.4, 150 mM NaCl, 1% TritonX-100, 1 mM EDTA, 1 mM phenylmethylsulfonyl fluoride, 0.5 mM Na3VO4 1 μg/ml leupeptin, 1 μg/ml pepstatin, and 1 μg/ml aprotinin) for 1 h, followed by centrifugation of the lysate at 12,000 rpm for 10 min at 4° C. The receptors were immunoprecipitated from the cell lysate supernatant by an anti-mPDGFRβ antibody (R&D Systems Inc), followed by the addition of 20 μl of ProA/G-sepharose beads. The precipitated receptor proteins were resolved on a 4-12% NuPAGE Bis-Tris gel and transferred to a polyvinylidene difluoride membrane. Phospho-mPDGFRβ protein was detected on the blot using an anti-phospho-tyrosine antibody-HRP conjugate (Santa Cruz Biotech, Santa Cruz, Calif.). Total receptor proteins loaded on the gel were assayed with an antibody to mPDGFRβ.

PDGFRβ in NIH/3T3 cells = target: T2, PDGFRβ in NIH/3T3 cells (Mus musculus, UniProt P05622); assay: as above; type: cell-based
T2 construct: Receptor phosphorylation was determined for NIH/3T3 and D122 cells; endogenous in cells; host or cells: NIH/3T3
Experimental: as §1

PDGFRβ = assay: Epitope mapping, binding domains; conditions: chimeric and shorter PDGFRβ constructs
Experimental: 2C5 binds to domain 1 (D1) and domain 2 (D2) of PDGFRβ. Various chimeric constructs of PDGFRβ and PDGFRα were first made by domain swapping, starting from N-terminus to C-terminus with PDGFRβ domain(s) replacing PDGFRα domain(s). The PDGFRβ/α chimera were tested for the ability of 2C5 binding. Shorter versions of PDGFRβ, including D1D2, D2D3 and D1D2D3, were then made to confirm the 2C5 binding domains on PDGFRβ.

T1 sequence (P05622 32-1098): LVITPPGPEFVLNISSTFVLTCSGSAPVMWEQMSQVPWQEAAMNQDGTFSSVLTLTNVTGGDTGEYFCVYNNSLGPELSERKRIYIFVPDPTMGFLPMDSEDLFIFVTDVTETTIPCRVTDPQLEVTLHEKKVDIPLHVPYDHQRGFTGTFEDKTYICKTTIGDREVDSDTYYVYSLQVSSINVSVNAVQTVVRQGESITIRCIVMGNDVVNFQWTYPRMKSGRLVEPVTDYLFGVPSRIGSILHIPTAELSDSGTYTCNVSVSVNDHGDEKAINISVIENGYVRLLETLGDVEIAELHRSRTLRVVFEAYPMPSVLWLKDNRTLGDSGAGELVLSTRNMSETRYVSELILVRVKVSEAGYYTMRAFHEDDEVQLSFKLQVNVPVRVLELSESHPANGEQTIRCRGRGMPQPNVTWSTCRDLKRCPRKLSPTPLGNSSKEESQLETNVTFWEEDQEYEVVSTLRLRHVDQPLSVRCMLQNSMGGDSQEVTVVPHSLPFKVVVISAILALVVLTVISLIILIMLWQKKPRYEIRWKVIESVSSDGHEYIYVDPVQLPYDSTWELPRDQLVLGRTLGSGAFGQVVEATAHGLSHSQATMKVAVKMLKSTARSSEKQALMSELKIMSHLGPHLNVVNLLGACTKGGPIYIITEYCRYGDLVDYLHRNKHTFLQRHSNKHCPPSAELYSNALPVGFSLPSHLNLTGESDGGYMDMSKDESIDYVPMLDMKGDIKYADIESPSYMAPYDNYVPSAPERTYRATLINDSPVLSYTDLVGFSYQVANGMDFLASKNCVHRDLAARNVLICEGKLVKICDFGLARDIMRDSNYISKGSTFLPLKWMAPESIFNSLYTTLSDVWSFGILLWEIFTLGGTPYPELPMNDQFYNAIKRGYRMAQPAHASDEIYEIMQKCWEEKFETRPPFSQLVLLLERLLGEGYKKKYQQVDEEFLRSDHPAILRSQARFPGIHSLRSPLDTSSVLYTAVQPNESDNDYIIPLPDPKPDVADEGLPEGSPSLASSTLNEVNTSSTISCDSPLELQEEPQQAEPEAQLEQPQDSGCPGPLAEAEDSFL
T2 sequence (P05622 32-1098): as above

| Molecule | inhibition of PDGF-BB-stimulated receptor phosphorylation (PDGFRβ in D122 cells) | inhibition of PDGF-BB-stimulated receptor phosphorylation (PDGFRβ in NIH/3T3 cells) | binding domains on PDGFRβ (PDGFRβ) |
| --- | --- | --- | --- |
| B1 | inhibited PDGF-BB-stimulated receptor phosphorylation in both NIH/3T3 and D122 cells in a dose dependent manner | inhibited PDGF-BB-stimulated receptor phosphorylation in both NIH/3T3 and D122 cells in a dose dependent manner | – |
| B2 | – | – | binds to PDGFRβ via both D1 and D2 of the receptor |
